The source of these data is paper PMC12824264, “Endoglin as a BMP9 Co-Receptor in Vascular Endothelial Cells: Prodomain Displacement and TGFBRII Recruitment” (Nature communications, 2025).

B1: monomeric soluble endoglin (full-length ENG extracellular domain), sENG(M) (domain or fragment, human, UniProt P17813 26-586, looked up)
chain: ETVHCDLQPVGPERGEVTYTTSQVSKGCVAQAPNAILEVHVLFLEFPTGPSQLELTLQASKQNGTWPREVLLVLSVNSSVFLHLQALGIPLHLAYNSSLVTFQEPPGVNTTELPSFPKTQILEWAAERGPITSAAELNDPQSILLRLGQAQGSLSFCMLEASQDMGRTLEWRPRTPALVRGCHLEGVAGHKEAHILRVLPGHSAGPRTVTVKVELSCAPGDLDAVLILQGPPYVSWLIDANHNMQIWTTGEYSFKIFPEKNIRGFKLPDTPQGLLGEARMLNASIVASFVELPLASIVSLHASSCGGRLQTSPAPIQTTPPKDTCSPELLMSLIQTKCADDAMTLVLKKELVAHLKCTITGLTFWDPSCEAEDRGDKFVLRSAYSSCGMQVSASMISNEAVVNILSSSSPQRKKVHCLNMDSLSFQLGLYLSPHFLQASNTIEPGQQSFVQVRVSPSVSEFLLQLDSCHLDLGPEGGTVELIQGRAAKGNCVSLLSPSPEGDPRFSFLLHFYTVPIPKTGTLSCTVALRPKTGSQDQEVHRTVFMRLNIISPDLSGCTSKG
notes: signal peptide in the construct; Expressed as a mixture of dimer and monomer; also called monomeric sENG; sENG-His; source: HEK EBNA, transfected (pCEP4), purified from conditioned medium (HisTrap excel, HiTrap Q HP, Superdex 200)
B2: dimeric soluble endoglin (full-length ENG extracellular domain), sENG(D) (domain or fragment, human, UniProt P17813 26-586, looked up)
chain: B1 chain
notes: signal peptide in the construct; Same construct as m1; It stays a dimer on non-reducing SDS-PAGE; also called dimeric sENG; sENG-His; source: HEK EBNA, transfected (pCEP4), purified from conditioned medium (HisTrap excel, HiTrap Q HP, Superdex 200)
B3: BMP9 growth factor domain (GFD) dimer (ligand, human, UniProt Q9UK05 320-429, looked up)
chain: SAGAGSHCQKTSLRVNFEDIGWDSWIIAPKEYEAYECKGGCFFPLADDVTPTKHAIVQTLVHLKFPTKVGKACCVPTKLSPISVLYKDDMGVPTLKYHYEGMSVAECGCR
notes: growth factor domain (GFD) of BMP9, the cut product of the proprotein; also called BMP9 GFD; source: bought: R&D Systems (BMP9 GFD); in the prodomain displacement assays released from pro:BMP9 made in HEK EBNA, purified
B4: BMP10 growth factor domain (GFD) dimer (ligand, human, UniProt O95393 317-424, looked up)
chain: NAKGNYCKRTPLYIDFKEIGWDSWIIAPPGYEAYECRGVCNYPLAEHLTPTKHAIIQALVHLKNSQKASKACCVPTKLEPISILYLDKGVVTYKFKYEGMAVSECGCR
notes: growth factor domain (GFD) of BMP10, the cut product of the proprotein; One molecule is used for the bought GFD and for the GFD freed from pro:BMP10; also called BMP10 GFD; source: bought: R&D Systems (BMP10 GFD); in the prodomain displacement assays released from pro:BMP10 made in HEK EBNA (FURIN co-transfected), purified

Settings in all cases: both partners purified
The target in test [1] is B3. Kind of test: SEC; S200 10/300 gel filtration; sENG(M) at 6x or sENG(D) at 3x molar excess premixed with pro:BMP9 or pro:BMP10 for 30 min; fractions on non-reducing SDS-PAGE. For orientation: In gel filtration, larger molecules generally elute earlier.
For test [2], the target named is B4. The description is as above.
Test [3] deals with B3. Kind of test: cross-linking; sENG(M) or sENG(D) with BMP9 or BMP10; crosslinker in PBS pH 7.4-8.0, 45 min at room temperature, quenched with 40 mM Tris; non-reducing SDS-PAGE.
The target of test [4] is B4. The test is described as above.
In test [5] the target is B2. Kind of test: SEC; S200 10/300 gel filtration; sENG(M) at 6x or sENG(D) at 3x molar excess premixed with pro:BMP9 or pro:BMP10 for 30 min; fractions on non-reducing SDS-PAGE.
Test [6] has as its target B1. Kind of test: native gel or EMSA; pro:BMP9 or pro:BMP10 pre-mixed with sENG(D), sENG(M), BMPRII ECD or ActRIIB ECD at stated molar ratios (from 0.3:1) in TBS, 8 ul, 30 min at room temperature; 10% native PAGE at 4 C; bands cut out and re-run on non-reducing SDS-PAGE. Background: In EMSA bound probe runs differently from free probe, usually more slowly.
Test [7] concerns the target B1. Kind of test: SEC; analytical gel filtration; pro:BMP9 or pro:BMP10 pre-mixed with 0.3-fold sENG(M) or sENG(D).
Test [8] concerns the target B2. The description is as above.

With B1, the “stoichiometry N” value in test [1] and in test [2] was 1 sENG(M) per GFD dimer throughout.

Consider B2, for which the “stoichiometry N” value in test [3] and in test [4] was 1 sENG(D) per GFD dimer each time.

Turning to B3, the binding result in test [5] and in test [6] was “binds” in each case.

Turning to B4, the binding result in test [7] and in test [8] was “binds” throughout.
